Experiments:
[1] = target: T1, recombinant human LEPR extracellular domain expressed with a C-terminal myc-myc-hexahistidine tag (human, UniProt P48357 22-839); test: SPR, mAb captured, 37 C
T1 construct: Monomeric construct; also called hLEPR.MMH; hLEPR-MMH
Description: (§1) Equilibrium dissociation constants (KD values) for antigen binding to purified anti-LEPR monoclonal antibodies of the invention were determined using a real-time surface plasmon resonance biosensor using a Biacore 4000 instrument. All binding studies were performed in running buffer containing 10 mM HEPES, 150 mM NaCl, 3 mM EDTA, and 0.05% v/v Surfactant Tween-20, pH 7.4 (HBS-ET running buffer) at 25° C. and 37° C. The Biacore sensor surface was first derivatized by amine coupling with a monoclonal mouse anti-human Fc antibody (GE, # BR-1008-39) to the capture anti-LEPR monoclonal antibodies. The LEPR reagents tested for binding to the anti-LEPR monoclonal antibodies included recombinant human LEPR extracellular domain expressed with a C-terminal myc-myc-hexahistidine tag (hLEPR.MMH; SEQ ID NO:90), recombinant cynomolgus monkey LEPR extracellular domain expressed with a C-terminal myc-myc-hexahistidine tag (mfLEPR.MMH; SEQ ID NO:93), recombinant mouse LEPR extracellular domain expressed with a C-terminal myc-myc-hexahistidine tag (mLEPR.MMH; SEQ ID NO:94), recombinant rat LEPR extracellular domain expressed with a C-terminal myc-myc-hexahistidine tag (rLEPR.MMH; SEQ ID NO:95), and recombinant human LEPR extracellular domain expressed with a C-terminal mouse IgG2a Fc tag (hLEPR.mFc; SEQ ID NO:91). LEPR constructs that include MMH tags are monomeric LEPR constructs, and LEPR constructs including an mFc tag are dimeric LEPR constructs. […] The dissociation of monoclonal antibody bound LEPR reagent was monitored for 10 minutes in HBS-ET running buffer. Kinetic association (10 and dissociation (10 rate constants were determined by fitting the real-time binding sensorgrams to a 1:1 binding model with mass transport limitation using Scrubber 2.0c curve-fitting software. Binding dissociation equilibrium constants (KD) and dissociative half-lives (t½) were calculated from the kinetic rate constants as: […]

[2] = target: T2, recombinant rat LEPR extracellular domain expressed with a C-terminal myc-myc-hexahistidine tag (rat, UniProt Q62959 22-839); test: SPR, mAb captured, 37 C
T2 construct: Monomeric construct; also called rLEPR.MMH; rLEPR-MMH
Description: as §1

[3] = target: T3, recombinant cynomolgus monkey LEPR extracellular domain expressed with a C-terminal myc-myc-hexahistidine tag (cynomolgus monkey, UniProt Q9MYL0 22-837 (rhesus entry)); test: SPR, mAb captured, 37 C
T3 construct: Monomeric construct; also called mfLEPR.MMH; mfLEPR-MMH
Description: as §1

[4] = target: T4, recombinant human LEPR extracellular domain expressed with a C-terminal mouse IgG2a Fc tag (human); test: SPR, mAb captured, 37 C
T4 construct: Dimeric construct; also called hLEPR.mFc; hLEPR-mFc
T4 chain: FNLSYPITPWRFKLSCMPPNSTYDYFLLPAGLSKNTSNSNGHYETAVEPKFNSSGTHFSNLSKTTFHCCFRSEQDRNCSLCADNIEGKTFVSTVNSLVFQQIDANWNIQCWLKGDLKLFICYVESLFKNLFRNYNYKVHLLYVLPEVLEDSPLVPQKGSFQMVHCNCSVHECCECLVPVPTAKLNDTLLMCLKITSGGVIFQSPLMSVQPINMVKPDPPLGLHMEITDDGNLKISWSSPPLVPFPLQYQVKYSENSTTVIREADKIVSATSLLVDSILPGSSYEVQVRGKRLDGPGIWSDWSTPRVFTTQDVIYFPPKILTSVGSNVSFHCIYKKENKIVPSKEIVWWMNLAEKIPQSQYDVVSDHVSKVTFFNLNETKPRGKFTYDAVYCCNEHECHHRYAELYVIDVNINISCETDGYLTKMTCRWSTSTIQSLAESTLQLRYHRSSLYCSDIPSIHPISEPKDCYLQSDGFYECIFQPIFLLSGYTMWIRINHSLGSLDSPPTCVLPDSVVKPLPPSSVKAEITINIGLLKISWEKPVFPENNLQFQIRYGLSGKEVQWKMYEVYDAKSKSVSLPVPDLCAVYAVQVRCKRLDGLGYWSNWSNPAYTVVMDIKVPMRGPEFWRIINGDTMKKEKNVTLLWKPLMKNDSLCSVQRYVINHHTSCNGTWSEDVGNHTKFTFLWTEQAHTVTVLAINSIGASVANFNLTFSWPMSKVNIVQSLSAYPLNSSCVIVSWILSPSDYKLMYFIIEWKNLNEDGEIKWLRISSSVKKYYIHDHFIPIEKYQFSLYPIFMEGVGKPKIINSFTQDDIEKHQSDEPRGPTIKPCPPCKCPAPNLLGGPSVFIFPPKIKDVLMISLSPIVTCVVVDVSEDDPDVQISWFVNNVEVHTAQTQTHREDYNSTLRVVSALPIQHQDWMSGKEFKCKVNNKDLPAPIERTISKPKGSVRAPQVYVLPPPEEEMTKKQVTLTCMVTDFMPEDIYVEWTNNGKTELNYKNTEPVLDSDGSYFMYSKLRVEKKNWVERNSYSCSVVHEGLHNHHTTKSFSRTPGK
Description: as §1

[5] = target: T5, recombinant mouse LEPR extracellular domain expressed with a C-terminal myc-myc-hexahistidine tag (mouse, UniProt P48356 22-839); test: SPR, mAb captured, 37 C
T5 construct: Monomeric construct; also called mLEPR.MMH; mLEPR-MMH
Description: as §1

[6] = target: T3, recombinant cynomolgus monkey LEPR …; test: SPR, mAb captured, 25 C
[7] = target: T4, recombinant human LEPR extracellular …; test: SPR, mAb captured, 25 C
[8] = target: T5, recombinant mouse LEPR extracellular …; test: SPR, mAb captured, 25 C

T2 sequence (Q62959 other isoform, or with tags, fused parts or gaps): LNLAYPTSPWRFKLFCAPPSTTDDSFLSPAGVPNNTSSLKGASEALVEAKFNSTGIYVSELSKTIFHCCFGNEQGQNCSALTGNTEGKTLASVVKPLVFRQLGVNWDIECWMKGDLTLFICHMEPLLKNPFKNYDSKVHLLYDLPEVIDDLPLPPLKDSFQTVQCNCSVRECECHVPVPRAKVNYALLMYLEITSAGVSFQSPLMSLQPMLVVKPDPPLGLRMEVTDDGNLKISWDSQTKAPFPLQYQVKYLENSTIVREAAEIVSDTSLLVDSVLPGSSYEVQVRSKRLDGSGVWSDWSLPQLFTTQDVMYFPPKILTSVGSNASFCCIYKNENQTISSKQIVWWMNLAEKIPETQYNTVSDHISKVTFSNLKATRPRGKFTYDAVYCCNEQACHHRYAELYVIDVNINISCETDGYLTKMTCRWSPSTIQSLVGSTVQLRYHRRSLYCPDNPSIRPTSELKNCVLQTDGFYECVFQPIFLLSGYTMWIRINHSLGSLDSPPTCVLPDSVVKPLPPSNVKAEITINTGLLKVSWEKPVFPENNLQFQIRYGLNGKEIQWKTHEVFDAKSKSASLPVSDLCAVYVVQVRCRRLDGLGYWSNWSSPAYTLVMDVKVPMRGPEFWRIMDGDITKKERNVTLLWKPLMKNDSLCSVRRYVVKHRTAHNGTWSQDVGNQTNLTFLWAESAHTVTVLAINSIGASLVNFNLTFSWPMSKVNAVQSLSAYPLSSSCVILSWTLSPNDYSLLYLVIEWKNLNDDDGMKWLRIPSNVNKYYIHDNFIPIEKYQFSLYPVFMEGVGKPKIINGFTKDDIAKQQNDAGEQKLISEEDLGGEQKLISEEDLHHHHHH
T5 sequence (P48356 other isoform, or with tags, fused parts or gaps): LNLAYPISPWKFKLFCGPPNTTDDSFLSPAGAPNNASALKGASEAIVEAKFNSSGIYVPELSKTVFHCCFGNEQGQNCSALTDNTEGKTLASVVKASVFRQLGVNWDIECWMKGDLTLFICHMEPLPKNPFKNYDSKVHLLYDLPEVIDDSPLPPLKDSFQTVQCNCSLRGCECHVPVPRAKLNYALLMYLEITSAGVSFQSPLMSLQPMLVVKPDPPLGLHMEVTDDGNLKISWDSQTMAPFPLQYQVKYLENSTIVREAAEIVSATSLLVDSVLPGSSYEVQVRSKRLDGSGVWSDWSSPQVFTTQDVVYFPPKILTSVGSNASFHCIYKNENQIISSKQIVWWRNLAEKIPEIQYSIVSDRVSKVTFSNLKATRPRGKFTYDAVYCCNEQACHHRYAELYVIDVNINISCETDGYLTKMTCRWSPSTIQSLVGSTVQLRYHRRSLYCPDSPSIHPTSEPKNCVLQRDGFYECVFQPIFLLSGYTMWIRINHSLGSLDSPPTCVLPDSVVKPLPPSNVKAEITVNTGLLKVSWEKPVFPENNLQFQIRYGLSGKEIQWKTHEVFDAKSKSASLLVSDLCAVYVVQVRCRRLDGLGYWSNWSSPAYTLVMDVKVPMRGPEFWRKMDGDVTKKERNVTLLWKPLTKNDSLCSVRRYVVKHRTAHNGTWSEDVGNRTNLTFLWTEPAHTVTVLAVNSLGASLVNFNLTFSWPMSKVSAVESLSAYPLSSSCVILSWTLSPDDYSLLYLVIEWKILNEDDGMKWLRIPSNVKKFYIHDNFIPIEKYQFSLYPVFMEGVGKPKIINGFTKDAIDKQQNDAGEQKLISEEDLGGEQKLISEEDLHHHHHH

B1: H4H18466P2 (antibody, human IgG4, V domains shown)
VH: EVQLVESGGGLVQPGGSLRLSCTASGFTFSSYGLHWVRQAPGKGLEYVSSINHNGGSKYYADSVKGRFTISRDNSKNTLFLQMGSLKTEDMAVYYCARDLFLEWLFHGFDIWGQGTMVTVSS
VL: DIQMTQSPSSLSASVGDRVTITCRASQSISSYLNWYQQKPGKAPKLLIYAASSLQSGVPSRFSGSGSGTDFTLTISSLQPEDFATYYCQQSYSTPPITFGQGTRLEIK
notes: H4H prefix: human IgG4 Fc
**Q.** B1 was tested. Which “100 nM hLEPR-MMH Bound (RU)” value [1] did it give?
**A.** The value was 26 RU.

**Q.** And the Kd [1]?
**A.** Its Kd is 0.148 µM.

**Q.** What about the koff [1] of the same binder?
**A.** The koff was 0.00674 s⁻¹.

**Q.** And the kon [1]?
**A.** Its kon is 45500 M⁻¹ s⁻¹.

**Q.** And the t½ [1]?
**A.** Its t½ is 1.7 min.

**Q.** And the “100 nM rLEPR-MMH Bound (RU)” value [2]?
**A.** The value was 6 RU.

**Q.** What about the Kd [2] of the same binder?
**A.** The Kd was 0.771 µM.

**Q.** And the koff [2]?
**A.** Its koff is 0.0252 s⁻¹.

**Q.** What about the kon [2] of the same binder?
**A.** Its kon is 32600 M⁻¹ s⁻¹.

**Q.** And the t½ [2]?
**A.** The t½ was 0.5 min.

**Q.** What about the “100 nM mfLEPR-MMH Bound (RU)” value [3] of the same binder?
**A.** Its value is 27 RU.

**Q.** And the Kd [3]?
**A.** Its Kd is 0.164 µM.

**Q.** And the koff [3]?
**A.** The koff was 0.0138 s⁻¹.

**Q.** And the kon [3]?
**A.** Its kon is 84300 M⁻¹ s⁻¹.

**Q.** And the t½ [3]?
**A.** Its t½ is 0.8 min.

**Q.** What about the “100 nM hLEPR-mFc Bound (RU)” value [4] of the same binder?
**A.** Its value is 52 RU.

**Q.** What about the Kd [4] of the same binder?
**A.** Its Kd is 0.00886 µM.

**Q.** And the koff [4]?
**A.** The koff was 0.00052 s⁻¹.

**Q.** And the kon [4]?
**A.** The kon was 58700 M⁻¹ s⁻¹.

**Q.** What about the t½ [4] of the same binder?
**A.** The t½ was 22 min.

**Q.** And the “100 nM mLEPR-MMH Bound (RU)” value [5]?
**A.** The value was 3 RU.

**Q.** And the “100 nM mfLEPR-MMH Bound (RU)” value [6]?
**A.** Its value is 30 RU.

**Q.** And the Kd [6]?
**A.** Its Kd is 0.148 µM.

**Q.** What about the koff [6] of the same binder?
**A.** The koff was 0.00669 s⁻¹.

**Q.** What about the kon [6] of the same binder?
**A.** Its kon is 45000 M⁻¹ s⁻¹.

**Q.** What about the t½ [6] of the same binder?
**A.** Its t½ is 1.7 min.

**Q.** What about the “100 nM hLEPR-mFc Bound (RU)” value [7] of the same binder?
**A.** The value was 37 RU.

**Q.** What about the Kd [7] of the same binder?
**A.** Its Kd is 0.0119 µM.

**Q.** What about the koff [7] of the same binder?
**A.** The koff was 0.000472 s⁻¹.

**Q.** What about the kon [7] of the same binder?
**A.** The kon was 39700 M⁻¹ s⁻¹.

**Q.** And the t½ [7]?
**A.** Its t½ is 24 min.

**Q.** What about the “100 nM mLEPR-MMH Bound (RU)” value [8] of the same binder?
**A.** The value was 1 RU.

**Q.** Does B1 bind [8]?
**A.** Result: no binding (tested: 100 nM)

Source: US20200123264A1 (Regeneron, published 2020)
